Consider four molecules from PMC12480156, “From biophysical interaction to structural modeling: bi-terminal G and TGS domains drive rice OsYchF1-OsGAP1 complex formation” (Botanical Studies, 2025).

The target in assay [1] is GST-OsGAP1 (rice (Oryza sativa)) (UniProt Q6YWF1). Nature of the assay: ITC; MicroCal ITC200; 400–500 µM (His)6-OsYchF1, its truncated derivatives or (His)6-tag in the syringe titrated into 20–30 µM GST-OsGAP1 or GST-tag in the chamber; 20 mM Tris-HCl pH 7.5, 20 mM NaCl, 1 mM DTT; 25 °C.
Another assay concerns the target T1, GST-OsGAP1 (rice (Oryza sativa), UniProt Q6YWF1 1-165).
T1 construct: also called GST-tagged OsGAP1; source: E. coli BL21 (DE3) pLysS, purified; not shown: GST, N-terminal, kept
T1 sequence (looked up): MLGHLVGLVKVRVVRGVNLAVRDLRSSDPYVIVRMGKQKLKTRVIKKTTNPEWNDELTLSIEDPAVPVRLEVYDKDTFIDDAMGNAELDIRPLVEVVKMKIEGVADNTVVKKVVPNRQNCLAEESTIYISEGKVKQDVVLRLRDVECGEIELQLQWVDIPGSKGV
The assay is described as above. To be noted: both partners purified.

The term Kd denotes a measure of binding affinity in units of concentration. A high value points to lower affinity. One may read the stoichiometry N as the number of molecules, sites or subunits per partner or assembly. Turning to “(His)6-OsYchF1 (No TGS domain) (from UniProt Q6Z1J6 1-302) (domain or fragment)”, in assay [1], the Kd was found to be 98.7 µM, the dH was -0.7 kcal/mol and the stoichiometry N worked out at 0.2.
In assay [1], “full-length (His)6-OsYchF1 (from UniProt Q6Z1J6 1-394) (natural protein)” had a Kd of 103 µM and a stoichiometry N of 0.6.

B1: (His)6-OsYchF1 (TGS domain) (domain or fragment, rice (Oryza sativa), UniProt Q6Z1J6 303-394, looked up)
chain: HLIYFFTAGPDEVKCWQIRRQTKAPQAAGTIHTDFERGFICAEVMKFDDLKELGSESAVKAAGKYRQEGKTYVVQDGDIIFFKFNVSGGGKK
notes: OsYchF1, rice, TGS domain, aa 303-394; also called (His)6-TGS; source: E. coli BL21 (DE3) pLysS, purified; not shown: His6, N-terminal, kept; thioredoxin (Trx), N-terminal, kept; S-tag, N-terminal, kept
B1: in the assay with GST-OsGAP1, the affinity, expressed as Kd, was 5.1 ± 2.3 µM; the dH was -3.4 ± 1.1 kcal/mol; the “stoichiometry N” value came to 0.6 ± 0.1.

B2: (His)6-OsYchF1 (G domain) (domain or fragment, rice (Oryza sativa), UniProt Q6Z1J6 1-128, looked up)
chain: MPPKASKKDAAPAERPILGRFSSHLKIGIVGLPNVGKSTFFNIVTKLSIPAENFPFCTIDPNEARVYVPDERFDWLCQLYKPKSEVSAYLEINDIAGLVRGAHAGEGLGNAFLSHIRAVDGIFHVLRA
notes: OsYchF1, rice, G domain, aa 1-128; also called (His)6-G; source: E. coli BL21 (DE3) pLysS, purified; not shown: His6, N-terminal, kept; thioredoxin (Trx), N-terminal, kept; S-tag, N-terminal, kept
Consider B2, for which, in the assay with GST-OsGAP1, the Kd came to 11.9 ± 6.7 µM, the dH is -2 ± 1.4 kcal/mol and the “stoichiometry N” value came out at 0.5 ± 0.7.
